Data taken from patent US20110236397.

How the values were obtained:
[1] = test system: full-length CD2AP, GFP-tagged (GFP-CD2AP fusion protein, 98 kD)
[2] = test system: CD2AP with the cathepsin L cleavage site LSAAE deleted
[3] = test system: C-terminal FLAG-tagged CD2AP (71 kD)

purified FLAG-CD2AP, sequence (chain, as listed by the source): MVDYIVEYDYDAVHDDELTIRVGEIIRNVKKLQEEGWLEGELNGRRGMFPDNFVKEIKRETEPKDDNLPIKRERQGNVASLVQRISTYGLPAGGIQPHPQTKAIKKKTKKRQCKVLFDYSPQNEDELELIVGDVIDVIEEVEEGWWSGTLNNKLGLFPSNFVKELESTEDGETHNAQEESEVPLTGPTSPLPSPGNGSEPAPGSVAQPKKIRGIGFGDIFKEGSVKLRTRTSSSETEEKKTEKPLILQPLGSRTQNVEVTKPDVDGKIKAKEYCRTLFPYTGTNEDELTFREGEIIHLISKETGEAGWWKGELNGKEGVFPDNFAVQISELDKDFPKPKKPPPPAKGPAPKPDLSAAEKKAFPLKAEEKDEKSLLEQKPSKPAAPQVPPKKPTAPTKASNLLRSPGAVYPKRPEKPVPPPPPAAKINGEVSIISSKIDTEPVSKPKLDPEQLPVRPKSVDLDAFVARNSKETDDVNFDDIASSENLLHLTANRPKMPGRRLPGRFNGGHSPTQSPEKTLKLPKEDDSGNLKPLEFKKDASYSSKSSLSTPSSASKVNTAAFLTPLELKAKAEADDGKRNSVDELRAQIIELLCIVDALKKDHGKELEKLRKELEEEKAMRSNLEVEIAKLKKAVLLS

purified cathepsin L enzyme (Sigma, specific activity 4.13 U/mg)
in vitro cleavage assay, immunoblot [1]: At neutral pH, CD2AP was cleaved into a stable 55 kD fragment as detected with an anti-GFP antibody
in vitro cleavage assay, immunoblot [2]: In absence of this cleavage site, the characteristic p32 fragment was no longer observed after enzymatic digest with cathepsin L enzyme
in vitro cleavage assay, silver stain (purified FLAG-CD2AP): cleavage assays performed at neutral conditions (pH 7.0) yielded a stable 32 kD CD2AP fragment (p32)
in vitro cleavage assay, immunoblot [3]: This experiment yielded a C-terminal 44 kD fragment of CD2AP; the anti-FLAG antibody also detected a strong band corresponding to p32 fragment
